The assay deals with Avr2 elicitor molecule of Cladosporium fulvum (Cladosporium fulvum).

B1: Cf-2.1 protein (polypeptide encoded by the tomato Cf-2.1 gene) (receptor)
chain: STEEATALLKWKATFKNQNNSFLASWIPSSNACKDWYGVVCFNGRVNTLNITNASVIGTLYAFPFSSLPSLENLDLSKNNIYGTIPPEIGNLTNLVYLDLNNNQISGTIPPQIGLLAKLQIIRIFHNQLNGFIPKEIGYLRSLTKLSLGINFLSGSIPASVGNLNNLSFLYLYNNQLSGSIPEEISYLRSLTELDLSDNALNGSIPASLGNMNNLSFLFLYGNQLSGSIPEEICYLRSLTYLDLSENALNGSIPASLGNLNNLSFLFLYGNQLSGSIPEEIGYLRSLNVLGLSENALNGSIPASLGNLKNLSRLNLVNNQLSGSIPASLGNLNNLSMLYLYNNQLSGSIPASLGNLNNLSMLYLYNNQLSGSIPASLGNLNNLSRLYLYNNQLSGSIPEEIGYLSSLTYLDLSNNSINGFIPASFGNMSNLAFLFLYENQLASSVPEEIGYLRSLNVLDLSENALNGSIPASFGNLNNLSRLNLVNNQLSGSIPEEIGYLRSLNVLDLSENALNGSIPASFGNLNNLSRLNLVNNQLSGSIPEEIGYLRSLNDLGLSENALNGSIPASLGNLNNLSMLYLYNNQLSGSIPEEIGYLSSLTYLSLGNNSLNGLIPASFANMRNLQALILNDNNLIGEIPSSVCNLTSLEVLYMPRNNLKGKVPQCLGNISNLQVLSMSSNSFSGELPSSISNLTSLQILDFGRNNLEGAIPQCFGNISSLEVFDMQNNKLSGTLPTNFSIGCSLISLNLHGNELEDEIPRSLDNCKKLQVLDLGDNQLNDTFPMWLGTLPELRVLRLTSNKLHGPIRSSRAEIMFPDLRIIDLSRNAFSQDLPTSLFEHLKGMRTVDKTMEEPSYESYYDDSVVVVTKGLELEIVRILSLYTVIDLSSNKFEGHIPSVLGDLIAIRILNVSHNALQGYIPSSLGSLSILESLDLSFNQLSGEIPQQLASLTFLEFLNLSHNYLQGCIPQGPQFRTFESNSYEGNDGLRGYPVSKGCGKDPVSEKNYTVSALEDQESNSEFFNDFWKAALMGYGSGLCIGISMIYILISTGNLRWLARIIEKLEHKIIMQRRKKQRGQRNYRRRNNHF
On to B1, for which the resistance of progeny of resistant transformants to matched races of C. fulvum carrying or lacking Avr-2 (race 5,9 compared with race 2,5,9) amounted to 75%.

B2: Cf-2.2 protein (polypeptide encoded by the tomato Cf-2.2 gene) (receptor)
chain: STEEATALLKWKATFKNQNNSFLASWIPSSNACKDWYGVVCFNGRVNTLNITNASVIGTLYAFPFSSLPSLENLDLSKNNIYGTIPPEIGNLTNLVYLDLNNNQISGTIPPQIGLLAKLQIIRIFHNQLNGFIPKEIGYLRSLTKLSLGINFLSGSIPASVGNLNNLSFLYLYNNQLSGSIPEEISYLRSLTELDLSDNALNGSIPASLGNMNNLSFLFLYGNQLSGSIPEEICYLRSLTYLDLSENALNGSIPASLGNLNNLSFLFLYGNQLSGSIPEEIGYLRSLNVLGLSENALNGSIPASLGNLKNLSRLNLVNNQLSGSIPASLGNLNNLSMLYLYNNQLSGSIPASLGNLNNLSMLYLYNNQLSGSIPASLGNLNNLSRLYLYNNQLSGSIPEEIGYLSSLTYLDLSNNSINGFIPASFGNMSNLAFLFLYENQLASSVPEEIGYLRSLNVLDLSENALNGSIPASFGNLNNLSRLNLVNNQLSGSIPEEIGYLRSLNVLDLSENALNGSIPASFGNLNNLSRLNLVNNQLSGSIPEEIGYLRSLNDLGLSENALNGSIPASLGNLNNLSMLYLYNNQLSGSIPEEIGYLSSLTYLSLGNNSLNGLIPASFGNMRNLQALILNDNNLIGEIPSSVCNLTSLEVLYMPRNNLKGKVPQCLGNISNLQVLSMSSNSFSGELPSSISNLTSLQILDFGRNNLEGAIPQCFGNISSLEVFDMQNNKLSGTLPTNFSIGCSLISLNLHGNELEDEIPRSLDNCKKLQVLDLGDNQLNDTFPMWLGTLPELRVLRLTSNKLHGPIRSSRAEIMFPDLRIIDLSRNAFSQDLPTSLFEHLKGMRTVDKTMEEPSYESYYDDSVVVVTKGLELEIVRILSLYTVIDLSSNKFEGHIPSVLGDLIAIRILNVSHNALQGYIPSSLGSLSILESLDLSFNQLSGEIPQQLASLTFLEFLNLSHNYLQGCIPQGPQFRTFESNSYEGNDGLRGYPVSKGCGKDPVSEKNYTVSALEDQESNSEFFNDFWKAALMGYGSGLCIGISIIYILISTGNLRWLARIIEELEHKIIMQRRKKQRGQRNYRRRNNRF
Regarding B2, the resistance of progeny of resistant transformants to matched races of C. fulvum carrying or lacking Avr-2 (race 5,9 compared with race 2,5,9) was 75%.
